{
  "source": "paper PMC7072329",
  "about": "“Discovery of Kynurenines Containing Oligopeptides as Potent Opioid Receptor Agonists” (Biomolecules, 2020)",
  "molecular_target": "T1, μ-opioid receptor (rat (endogenous in rat brain)), P33535",
  "T1 chain": "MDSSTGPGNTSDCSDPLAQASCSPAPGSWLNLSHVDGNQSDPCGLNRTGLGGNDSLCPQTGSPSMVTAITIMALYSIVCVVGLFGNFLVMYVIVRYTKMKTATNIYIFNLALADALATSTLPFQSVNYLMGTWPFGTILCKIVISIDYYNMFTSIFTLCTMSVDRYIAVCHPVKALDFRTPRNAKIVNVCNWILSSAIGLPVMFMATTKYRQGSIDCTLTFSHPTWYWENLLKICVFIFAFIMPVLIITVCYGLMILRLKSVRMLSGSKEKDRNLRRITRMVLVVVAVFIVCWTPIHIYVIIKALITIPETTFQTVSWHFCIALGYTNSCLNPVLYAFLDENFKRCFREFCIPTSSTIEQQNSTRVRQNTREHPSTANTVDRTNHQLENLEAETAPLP",
  "experiment": "radioligand binding; displacement of [^3H]DAMGO from rat brain membrane homogenate by unlabelled ligand (10^-10 to 10^-5 M); 50 mM Tris-HCl pH 7.4, 35 °C, 45 min; non-specific binding with 10 μM naloxone; IC50 converted into Ki by Cheng-Prusoff, one site competition fit",
  "data": [
    {"binder": "YPFF (modifications not checked)", "note": "[endomorphin-2 (EM-2)]", "values": [
      {"measurement": "Ki", "result": 3.16, "unit": "nM"}
    ]}
  ]
}
